Test results taken from the supplement of paper PMC10065799, “High-throughput profiling of sequence recognition by tyrosine kinases and SH2 domains using bacterial peptide display” (eLife, 2023).

What follows are sequences tested against Grb2 SH2 (UniProt P62993) (assay: SH2 binding enrichment of the phosphorylated peptide, bacterial display (enrichment ratio); higher = better substrate or ligand; peptides without Tyr show the background).
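Wherever SH2 binding enrichment of the phosphorylated peptide, bacterial display is given: peptide library displayed on the E. coli surface as eCPX fusions, selected cells deep-sequenced, score is each peptide's frequency after selection divided by its frequency in the input.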
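Wherever phosphorylation enrichment, bacterial display is given: 11-residue human phosphosite peptides and single-mutation variants displayed on the E. coli surface, counted by deep sequencing, each peptide's frequency after selection divided by its frequency in the unselected input library; frequency after pTyr selection over input frequency; kinase dosed for 20-30% of maximal phosphorylation in three min.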

Grb2 SH2, sequence (P62993 whole entry, looked up, the tested form may be a part): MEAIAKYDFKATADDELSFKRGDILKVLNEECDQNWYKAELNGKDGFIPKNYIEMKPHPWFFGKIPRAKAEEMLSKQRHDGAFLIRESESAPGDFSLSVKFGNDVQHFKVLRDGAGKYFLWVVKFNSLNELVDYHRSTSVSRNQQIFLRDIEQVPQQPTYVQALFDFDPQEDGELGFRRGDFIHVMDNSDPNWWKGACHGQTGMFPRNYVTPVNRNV

Row | Sequence | SH2 binding enrichment
1 | LMIEEYLTKEL [BAG3_Y457] | 0.981
2 | LGPDGYSTVDQ [ARVCF_Y901_R906Q] | 1.21
3 | FGMSSYITRED [FNDC3B_Y180_T179S_YF] | 0.715
4 | GTATAYLCRVK [ALPL_Y117_G120R] | 1.07
5 | YEAMEYLESKQ [BTK_Y511_C506Y] | 0.646
6 | LGQGKYSEVFE [CSNK2A1_Y50_R47Q] | 0.95
7 | FAANFYKLLGN [ROR2_Y646_D644N_YF] | 0.676
8 | MSSLYYANTLF [HOXB7_Y6] | 2.87
9 | DDEVFYSPLSL [OTC_Y317_R320L] | 0.777
10 | YYYDLYGGEKF [PTPN11_Y66_D61Y] | 1.43
11 | DGPVNYEEFVQ [CALM2_Y139_Q136P] | 0.848
12 | IYLADCRIMEG [ALOX12B_Y318_Y318C] | 0.821
13 | RAWPPYTVAAD [ANKZF1_Y572_R569W] | 1.08

Each sequence was assayed against c-Src SH2 in the same assay as above.

Row | Sequence | SH2 binding enrichment
14 | LMIEEYLTKEL [BAG3_Y457] | 0.514
15 | LGPDGYSTVDQ [ARVCF_Y901_R906Q] | 36
16 | FGMSSYITRED [FNDC3B_Y180_T179S_YF] | 0.501
17 | GTATAYLCRVK [ALPL_Y117_G120R] | 0.525
18 | YEAMEYLESKQ [BTK_Y511_C506Y] | 10
19 | LGQGKYSEVFE [CSNK2A1_Y50_R47Q] | 3.54
20 | FAANFYKLLGN [ROR2_Y646_D644N_YF] | 0.468
21 | MSSLYYANTLF [HOXB7_Y6] | 1.24
22 | DDEVFYSPLSL [OTC_Y317_R320L] | 0.38
23 | YYYDLYGGEKF [PTPN11_Y66_D61Y] | 4.39
24 | DGPVNYEEFVQ [CALM2_Y139_Q136P] | 0.418
25 | IYLADCRIMEG [ALOX12B_Y318_Y318C] | 0.45
26 | RAWPPYTVAAD [ANKZF1_Y572_R569W] | 0.556

Each sequence was assayed against SHP2-C SH2 in the same assay as above.

Row | Sequence | SH2 binding enrichment
27 | LMIEEYLTKEL [BAG3_Y457] | 1.16
28 | LGPDGYSTVDQ [ARVCF_Y901_R906Q] | 1.77
29 | FGMSSYITRED [FNDC3B_Y180_T179S_YF] | 0.937
30 | GTATAYLCRVK [ALPL_Y117_G120R] | 0.771
31 | YEAMEYLESKQ [BTK_Y511_C506Y] | 0.649
32 | LGQGKYSEVFE [CSNK2A1_Y50_R47Q] | 0.829
33 | FAANFYKLLGN [ROR2_Y646_D644N_YF] | 0.453
34 | MSSLYYANTLF [HOXB7_Y6] | 0.739
35 | DDEVFYSPLSL [OTC_Y317_R320L] | 0.588
36 | YYYDLYGGEKF [PTPN11_Y66_D61Y] | 1.63
37 | DGPVNYEEFVQ [CALM2_Y139_Q136P] | 0.656
38 | IYLADCRIMEG [ALOX12B_Y318_Y318C] | 0.671
39 | RAWPPYTVAAD [ANKZF1_Y572_R569W] | 0.697

These sequences were tested against EPHB1 (UniProt P54762) (assay: phosphorylation enrichment, bacterial display (enrichment ratio); higher = better substrate or ligand; peptides without Tyr show the background).
EPHB1, sequence (P54762 whole entry, looked up): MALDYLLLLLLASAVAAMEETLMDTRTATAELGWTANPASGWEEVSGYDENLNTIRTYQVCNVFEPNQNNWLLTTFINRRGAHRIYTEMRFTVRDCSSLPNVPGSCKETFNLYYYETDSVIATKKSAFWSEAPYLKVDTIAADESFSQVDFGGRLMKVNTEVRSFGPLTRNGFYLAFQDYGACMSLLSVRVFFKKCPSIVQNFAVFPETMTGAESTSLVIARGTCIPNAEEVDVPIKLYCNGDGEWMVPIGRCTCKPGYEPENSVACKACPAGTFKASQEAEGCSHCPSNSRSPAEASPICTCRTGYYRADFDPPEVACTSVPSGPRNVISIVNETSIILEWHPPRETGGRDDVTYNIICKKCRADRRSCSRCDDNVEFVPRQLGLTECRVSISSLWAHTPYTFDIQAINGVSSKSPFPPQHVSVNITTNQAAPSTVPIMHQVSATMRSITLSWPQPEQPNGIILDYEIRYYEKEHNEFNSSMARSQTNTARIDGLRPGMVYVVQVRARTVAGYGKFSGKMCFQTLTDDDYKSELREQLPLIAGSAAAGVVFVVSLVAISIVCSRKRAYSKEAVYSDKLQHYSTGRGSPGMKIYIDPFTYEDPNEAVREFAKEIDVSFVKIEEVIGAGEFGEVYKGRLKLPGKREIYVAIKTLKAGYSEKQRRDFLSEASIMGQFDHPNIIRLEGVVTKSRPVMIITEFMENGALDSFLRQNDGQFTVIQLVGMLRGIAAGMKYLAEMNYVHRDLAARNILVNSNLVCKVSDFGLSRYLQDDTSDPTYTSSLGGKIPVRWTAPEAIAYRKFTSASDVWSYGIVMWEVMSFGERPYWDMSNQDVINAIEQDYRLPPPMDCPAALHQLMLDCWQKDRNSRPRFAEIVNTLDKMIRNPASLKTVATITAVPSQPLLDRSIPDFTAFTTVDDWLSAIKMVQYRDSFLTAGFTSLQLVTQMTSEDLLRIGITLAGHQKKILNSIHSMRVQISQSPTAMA

Row | Sequence | phosphorylation enrichment
40 | LMIEEYLTKEL [BAG3_Y457] | 0.911
41 | LGPDGYSTVDQ [ARVCF_Y901_R906Q] | 0.876
42 | FGMSSYITRED [FNDC3B_Y180_T179S_YF] | 0.594
43 | GTATAYLCRVK [ALPL_Y117_G120R] | 0.48
44 | YEAMEYLESKQ [BTK_Y511_C506Y] | 2.15
45 | LGQGKYSEVFE [CSNK2A1_Y50_R47Q] | 0.508
46 | FAANFYKLLGN [ROR2_Y646_D644N_YF] | 0.476
47 | MSSLYYANTLF [HOXB7_Y6] | 10.7
48 | DDEVFYSPLSL [OTC_Y317_R320L] | 0.495
49 | YYYDLYGGEKF [PTPN11_Y66_D61Y] | 7.99
50 | DGPVNYEEFVQ [CALM2_Y139_Q136P] | 1.27
51 | IYLADCRIMEG [ALOX12B_Y318_Y318C] | 0.693
52 | RAWPPYTVAAD [ANKZF1_Y572_R569W] | 0.678
